Assay results published in article PMC12090751 (Journal of Virology, 2025).

Legend:
[1] = molecular target: HA1 F1 (aa 11-329) displayed on yeast as Aga2 fusion (Influenza A virus H5, Re8 vaccine …, UniProt Q9Q0U6, strain); test: immunostaining of cells or tissue; settings: one partner purified
[2] = molecular target: HA1 fragment F7 (aa 50-271) displayed on yeast as Aga2 fusion (Influenza A virus H5, Re8 vaccine …, UniProt Q9Q0U6, strain); test: immunostaining of cells or tissue; settings: one partner purified

B1: Nb10 with Twin-Strep-tag (VHH)
VHH: QVQLQESGGGSVQAGGSLRLSCSASEYTRSMAWFRQVPGKEREGVAAIDTGNGNTYYPTVDGRFIISRGNAKNSVDLEMNSLTPDDTAIYYCAATQGPLWPTLGTQFSTESYNYWGQGTLVTVSS
- binding result [1]: binds
- binding result [2]: binds
